Test results published in PMC9868005, “Structural and functional characterization of TraI from pKM101 reveals basis for DNA processing”.

Tests used:
[1] = molecular target: T1, TraI trans-esterase domain (TraI-TE) (Escherichia coli? (plasmid pKM101), UniProt D9Z5Q2 1-299); test: EMSA; apparent Kd, half-shift point; EMSA: 50 nM FITC-DNA, 0-1600 nM protein, 25 mM Hepes-NaOH pH 7.0, 300 mM NaCl, room temperature 15 min; 5% PAGE, 0.75x TBE, 4 C; settings: protein: recombinant; tags: 10xHis with 3C site, cleaved off; label: 5' FITC; hairpin
T1 sequence: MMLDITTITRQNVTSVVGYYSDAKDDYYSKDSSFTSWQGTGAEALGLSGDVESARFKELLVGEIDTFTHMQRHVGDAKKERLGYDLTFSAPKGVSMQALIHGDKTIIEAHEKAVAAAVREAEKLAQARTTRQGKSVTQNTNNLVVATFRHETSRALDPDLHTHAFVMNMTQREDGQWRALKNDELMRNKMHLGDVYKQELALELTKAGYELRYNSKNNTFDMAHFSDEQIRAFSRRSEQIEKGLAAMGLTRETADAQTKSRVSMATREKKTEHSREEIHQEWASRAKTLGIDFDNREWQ

TraI full-length = molecular target: T2, TraI full-length (Escherichia coli? (plasmid pKM101), UniProt D9Z5Q2 3-1079); test: EMSA; complete shift at 200 nM and above; high shift from 50 nM; EMSA: 50 nM FITC-DNA, 0-1600 nM protein, 25 mM Hepes-NaOH pH 7.0, 300 mM NaCl, room temperature 15 min; 5% PAGE, 0.75x TBE, 4 C; settings: protein: recombinant; tags: 10xHis with 3C site, cleaved off; label: 5' FITC; hairpin
T2 sequence: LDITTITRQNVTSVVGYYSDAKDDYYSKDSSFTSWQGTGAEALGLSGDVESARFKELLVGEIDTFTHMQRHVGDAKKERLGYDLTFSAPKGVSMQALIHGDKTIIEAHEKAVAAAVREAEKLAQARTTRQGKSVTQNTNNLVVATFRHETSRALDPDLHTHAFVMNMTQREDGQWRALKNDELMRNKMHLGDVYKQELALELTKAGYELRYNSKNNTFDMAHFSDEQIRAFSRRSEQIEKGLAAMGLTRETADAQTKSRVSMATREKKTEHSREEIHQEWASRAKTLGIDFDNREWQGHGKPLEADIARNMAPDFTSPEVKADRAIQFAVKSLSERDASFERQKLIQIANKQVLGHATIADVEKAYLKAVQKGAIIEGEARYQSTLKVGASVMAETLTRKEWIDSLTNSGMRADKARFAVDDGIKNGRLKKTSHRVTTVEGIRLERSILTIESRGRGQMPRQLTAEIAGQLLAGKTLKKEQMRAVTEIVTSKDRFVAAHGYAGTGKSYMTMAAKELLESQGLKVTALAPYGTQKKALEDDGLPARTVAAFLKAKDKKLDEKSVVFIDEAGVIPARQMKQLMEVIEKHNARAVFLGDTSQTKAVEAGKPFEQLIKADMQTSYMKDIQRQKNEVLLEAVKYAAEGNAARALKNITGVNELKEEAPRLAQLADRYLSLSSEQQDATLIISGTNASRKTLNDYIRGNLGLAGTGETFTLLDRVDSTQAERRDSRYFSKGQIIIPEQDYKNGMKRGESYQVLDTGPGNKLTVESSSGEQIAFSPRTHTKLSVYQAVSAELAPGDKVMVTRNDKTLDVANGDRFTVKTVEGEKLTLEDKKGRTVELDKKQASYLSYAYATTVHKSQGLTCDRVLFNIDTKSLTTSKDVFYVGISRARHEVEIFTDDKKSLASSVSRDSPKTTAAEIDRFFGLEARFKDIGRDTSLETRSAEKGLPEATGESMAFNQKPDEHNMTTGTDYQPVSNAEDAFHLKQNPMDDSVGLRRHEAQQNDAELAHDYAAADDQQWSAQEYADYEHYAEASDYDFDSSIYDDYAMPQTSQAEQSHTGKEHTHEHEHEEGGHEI

[2] = molecular target: T1, TraI trans-esterase domain (TraI-TE); test: EMSA; over half bound at 200 nM; EMSA: 50 nM FITC-DNA, 0-1600 nM protein, 25 mM Hepes-NaOH pH 7.0, 300 mM NaCl, room temperature 15 min; 5% PAGE, 0.75x TBE, 4 C; settings: protein: recombinant; tags: 10xHis with 3C site, cleaved off; label: 5' FITC; hairpin
[3] = molecular target: T1, TraI trans-esterase domain (TraI-TE); test: X-ray crystallography 2.1 A; divalent cation modeled as Mn2+ (identity uncertain); 10 of 11 bases modeled; EMSA: 50 nM FITC-DNA, 0-1600 nM protein, 25 mM Hepes-NaOH pH 7.0, 300 mM NaCl, room temperature 15 min; 5% PAGE, 0.75x TBE, 4 C; settings: protein: recombinant; tags: 10xHis with 3C site, cleaved off; U-turn in complex
[4] = molecular target: T1, TraI trans-esterase domain (TraI-TE); test: EMSA; interaction only seen above 800 nM; EMSA: 50 nM FITC-DNA, 0-1600 nM protein, 25 mM Hepes-NaOH pH 7.0, 300 mM NaCl, room temperature 15 min; 5% PAGE, 0.75x TBE, 4 C; settings: protein: recombinant; tags: 10xHis with 3C site, cleaved off; label: 5' FITC

B1: F-oriT57 (structured_DNA)
DNA: TGTGATAGCGTGATTTATCGCGCTGCGTTAGGTGTATAGCAGGTTAAGGGATAAAAA
Kd [1]: < 200 nM | apparent K (half saturation) (TraI full-length): < 200 nM

TGTGATAGCGTGATTTATCGCGCTGCGTTAGGTGT (structured_DNA) [F-oriT35]
apparent K (half saturation) [2]: < 200 nM | apparent K (half saturation) (TraI full-length): < 200 nM

GCGTTAGGTGT (ssDNA) [oriT11]
binding result [3]: binds

B2: F-Random57 (ssDNA)
DNA: TCCGCCATGCAGACGAGACCAGTCGGAGATTACCGAGCATTCTATCAGGTCGGCGAC
apparent K (half saturation) [4]: > 800 nM
